Assay results as given in patent US12465646B2, “Linkers” (Oxford University Innovation Limited, priority 2018, dated 2025).
Where no end group is shown, it is not given here. [ ]: non-standard residue; d: D form. GABA = NCCCC(=O)O; βAla = NCCC(=O)O

Legend:
[1] = Recovery time of mice after intravenous injection of peptide-PMO-CAG7; type: in vivo, C57BL6 mice
Experimental: Animal experiments and ASO injections. Experiments were carried out in the University of Oxford according to UK legislation. The intravenous injections in HSA-LR C57BL/6 mice were performed by single or repeated administrations via the tail vein. Doses of 30, 12.5, 7.5 and 5 mg/kg of peptide-PMO-CAG7 (SEQ ID NO: 81) were diluted in 0.9% saline and given at a volume of 5-6 μL/g of body weight. KIM-1 levels in C57BL6 female mice measured by ELISA (R&D cat #MKM100) with samples diluted to fit within standard curve. Values were normalised to urinary creatinine levels (Harwell) to account for urine protein concentration.

exon skipping = settings: in a conjugate with a therapeutic molecule; cited from earlier work
[2] = CPP carrier; cited from earlier work
human hepatocytes = assay: Hepatocyte cell viability; type: cell-based; settings: 40 μM
Experimental: Immortalized myoblasts from healthy individual or DM1 patient with 2600 CTG repeats were cultivated in a growth medium consisting of a mix of M199:DMEM (1:4 ratio; Life technologies) supplemented with 20% FBS (Life technologies), 50 μg/ml gentamycin (Life technologies), 25 μg/ml fetuin, 0.5 ng/ml bFGF, 5 ng/ml EGF and 0.2 μg/ml dexamethasone (Sigma-Aldrich). Myogenic differentiation was induced by switching confluent cell cultures to DMEM medium supplemented with 5 μg/ml insulin (Sigma-Aldrich) for myoblasts. For treatment, WT or DM1 cells are differentiated for 4 days. Then, medium was changed with fresh differentiation medium with peptide-PMOs at a 1, 2, 5 10, 20 or 40 μM concentration. Cells were harvested for analysis 48 h after treatment. Cell viability was quantified in after 2 days of transfection of peptide-PMOs at 40 μM in human hepatocytes or at a 1, 2, 5 10, 20 or 40 μM concentration in human myoblasts using a fluorescent-based assay (Promega).

Ac-RBRRBRFQILYBRBR-B [DPEP1.9]
recovery time after injection, time AV ± SD ([1]; 7.5 mg/kg, HSA-LR mouse, 8-12 weeks): 0 min | recovery time after injection, time AV ± SD ([1]; 30 mg/kg, HSA-LR mouse, 30 weeks): >60 min | recovery time after injection, time AV ± SD ([1]; 4× 7.5 mg/kg repeated injections, HSA-LR mouse, 8-12 weeks): 0 min | recovery time after injection, time AV ± SD ([1]; 6× 5 mg/kg repeated injections, HSA-LR mouse, 8-12 weeks): 0 min

Ac-RBRRBRFQILYBRBR-E (Ac-R[βAla]RR[βAla]RFQILY[βAla]R[βAla]RE; also: Glu linker to [CAG]7 PMO, attachment not given here) [DPEP1.9b]
recovery time after injection, time AV ± SD ([1]; 30 mg/kg, WT mouse, 8-12 weeks): 15 min

Ac-RBRRBRRFQILYRBHBH-Ab (Ac-R[βAla]RR[βAla]RRFQILYR[βAla]H[βAla]H-{GABA-(CAG)7 PMO}) [DPEP3.1a]
recovery time after injection, time AV ± SD ([1]; 30 mg/kg, WT mouse, 8-12 weeks): 10 min

Ac-RRRRRR-(G) (Ac-RRRRRRG; also: conjugated therapeutic molecule via glycine linker) [R6Gly]
efficacy in inducing exon skipping (exon skipping): reduced efficacy | toxicity [2]: reduced toxicity

Ac-RXRRBRRXR-YQFLI-RXRBRXR-(B) [pip6a, reference compound]
recovery time after injection, time AV ± SD ([1]; 12.5 mg/kg, HSA-LR mouse, 8-12 weeks): >60 min | percentage hepatocyte cell viability (human hepatocytes): cell mortality
